Data as given in patent US20070087400A1, “Covalent tethering of functional groups to proteins and substrates therefor” (priority 2004, published 2007).
Numbering of substitutions follows the chain as printed. Numbers in names are those of the source.

How the values were obtained:
[1] = Precipitation of DhaA proteins with (NH4)2SO4; format: physicochemical; settings: 2 hours, 4° C.
Procedure: Aliquots of the supernatant obtained from E. coli expressing DhaA (WT or one of the mutants) were treated with increasing concentrations of (NH4)2SO4. The proteins were exposed to each (NH4)2SO4 concentration for 2 hours (4° C.), pelleted by centrifugation, dialyzed overnight against buffer A, and resolved on SDS-PAGE.

[2] = Covalent alkyl-enzyme formation in whole cells; settings: 15 μM substrate, 4° C., approximately 18 hours
[3] = In vitro covalent alkyl-enzyme formation in crude lysates; settings: 25 μM substrate, 2 hours at room temperature
[4] = Thermostability analysis (residual activity by FP assay); format: physicochemical; settings: 60 minute incubations
Procedure: Thermostability analysis. The thermostability profiles of the DhaA mutants were determined by measuring the residual activity of the purified proteins following 15, 30 or 60 minute incubations at 4, 22, 30, 37, 42, 50 or 60° C. The FP assay was performed at room temperature (about 25° C.). […] For each clone, the labeling rate (slope of the linear range) was calculated for each condition. The rate observed following a 15 minute incubation at 4° C. was arbitrarily assigned as 100% activity. The residual activity (%) was calculated for each condition. To determine stability, for each incubation time, the % of residual activity was plotted against the incubation temperatures. To calculate half-life, for each incubation temperature, the % of residual activity was plotted against the incubation time. The time where 50% activity was lost was extrapolated from the graph.

[5] = DhaA capture using immobilized biotin chloroalkane substrates (ELISA-type); format: binding
Procedure: DhaA capture using immobilized chloroalkane substrates. […] Reactions between immobilized substrate and mutant DhaAs were performed using purified GST-DhaA-Flag fusions. Various concentrations of protein (100 μL; diluted in PBSTB) were incubated with immobilized substrate for various times at 25° C., and the reactions were stopped by emptying the plates and washing 4× with PBST. To detect bound DhaA, 100 μL anti-GST-HRP (Amersham) was added to each well at a 1:10,000 dilution (in PBSTB) and the plates incubated for 1 hour at 25° C.

[6] = In vivo labeling of DhaA mutants expressed in CHO-K1 cells (cell-to-gel analysis); format: cell-based; settings: substrate concentration 5 μM
Procedure: Cell-to-gel analysis. […] Proteins (2-10 μl/lane) were resolved on SDS-PAGE (4-20% gradient gels).

[7] = Protein immobilization assay (substrate capture using immobilized DhaA); settings: biotin-PEG4-14-Cl substrate
[8] = Hydrolysis of FAP by BlaZ (loss of absorbance at 344 nm); format: biochemical, Staphylococcus aureus PC1; settings: 25° C., pH 6.8, up to 60 minutes
Procedure: The chromogenic substrate 6-β-[(Furylacryloyl)amido]penicillanic acid triethylamine salt (FAP) was purchased from Calbiochem (La Jolla, Calif.). […] All assays were performed at 25° C. in 0.1 M potassium phosphate buffer at pH 6.8.

[9] = Hydrolysis of CCF2 (FRET-based substrate) by BlaZ; format: biochemical, Staphylococcus aureus PC1
From the text: In CCF2, the cephalosporin core links a 7-hydroxycoumarin to a fluorescein. In the intact molecule, excitation of the coumarin (Eex-409 nm) results in FRET to the fluorescein, which emits green light (Eem-520 nm). Cleavage of CCF2 by β-lactamase results in spatial separation of the two dyes, disrupting FRET such that excitation of coumarin now gives rise to blue fluorescence (Eex-447 nm). CCF2 was purchased from Aurora Biosciences Corporation (San Diego, Calif.). Reduction of the FRET signal and an increase in blue fluorescence were measured on Fluorescence Multi-well Plate Reader CytoFluorI (PerSeptive Biosystems, Framingham, Mass., USA).

B1: DhaA.H272Q: DhaA mutant with H272Q substitution (protein, UniProt P0A3G2 1-293, looked up, variant H272Q)
Haloalkane dehalogenase: MSEIGTGFPFDPHYVEVLGERMHYVDVGPRDGTPVLFLHGNPTSSYLWRNIIPHVAPSHRCIAPDLIGMGKSDKPDLDYFFDDHVRYLDAFIEALGLEEVVLVIHDWGSALGFHWAKRNPERVKGIACMEFIRPIPTWDEWPEFARETFQAFRTADVGRELIIDQNAFIEGALPKCVVRPLTEVEMDHYREPFLKPVDREPLWRFPNELPIAGEPANIVALVEAYMNWLHQSPVPKLLFWGTPGVLIPPAEAARLAESLPNCKTVDIGPGLQYLQEDNPDLIGSEIARWLPAL
[1]
  (NH4)2SO4 concentration at which the protein was precipitated: 10%

B2: DhaA.H272F: DhaA mutant, catalytic His272 replaced with Phe (protein, UniProt P0A3G2 1-293, looked up, variant H272F)
Haloalkane dehalogenase: B1 Haloalkane dehalogenase with Q272F
[2]
  formation of covalent alkyl-enzyme intermediate in whole cells: capable of generating a covalent alkyl-enzyme intermediate
[3]
  formation of alkyl-enzyme covalent intermediate in crude lysates: very efficient at producing this intermediate

B3: DhaA.H272G: DhaA mutant with H272G substitution (protein, UniProt P0A3G2 1-293, looked up, variant H272G)
Haloalkane dehalogenase: B1 Haloalkane dehalogenase with Q272G
[1]
  (NH4)2SO4 concentration at which the protein was precipitated: 10%

B4: DhaA.H272F H11: first generation DhaA.H272F mutant with K175M and C176G (protein, UniProt P0A3G2 1-293, looked up, variant K175M C176G H272F)
Haloalkane dehalogenase: B1 Haloalkane dehalogenase with K175M, C176G, Q272F
[4]
  retained significant labeling activity following incubation as high as: ≤ 50 °C
[5]; biotin-14-Cl, biotin-X-14-Cl, biotin-PEG4-14-Cl
  reaction with all biotin substrates tested: reacted poorly
[6]
  in vivo labeling performance compared to parent DhaA.H272F: superior performance characteristics

B5: DhaA.H272F YL: DhaA.H272F based mutant with Y273L (protein, UniProt P0A3G2 1-293, looked up, variant H272F Y273L)
Haloalkane dehalogenase: B1 Haloalkane dehalogenase with Q272F, Y273L
[5]
  reaction with immobilized biotin-PEG4-14-Cl: react most efficiently
[7]
  activity compared to parental clones: significantly improved

B6: DhaA.H272F YC: DhaA.H272F based mutant with Y273C (protein, UniProt P0A3G2 1-293, looked up, variant H272F Y273C)
Haloalkane dehalogenase: B1 Haloalkane dehalogenase with Q272F, Y273C
[7]
  activity compared to parental clones: significantly improved

B7: DhaA.H272A: DhaA mutant with H272A substitution (protein, UniProt P0A3G2 1-293, looked up, variant H272A)
Haloalkane dehalogenase: B1 Haloalkane dehalogenase with Q272A
[1]
  (NH4)2SO4 concentration at which the protein was precipitated: 10%

B8: DhaA.H272F YM: DhaA.H272F based mutant with Y273M (protein, UniProt P0A3G2 1-293, looked up, variant H272F Y273M)
Haloalkane dehalogenase: B1 Haloalkane dehalogenase with Q272F, Y273M
[5]
  reaction with immobilized biotin-PEG4-14-Cl: react most efficiently
[7]
  activity compared to parental clones: significantly improved

B9: DhaA.WT: wild-type Rhodococcus rhodochrous dehalogenase (DhaA) (protein, UniProt P0A3G2 1-293, looked up)
Haloalkane dehalogenase: B1 Haloalkane dehalogenase with Q272H
[3]
  formation of alkyl-enzyme covalent intermediate in crude lysates: No such product could be detected

B10: BlaZ.N170Q (protein, UniProt P00807 25-281, looked up, variant N170Q)
Beta-lactamase: KELNDLEKKYNAHIGVYALDTKSGKEVKFNSDKRFAYASTSKAINSAILLEQVPYNKLNKKVHINKDDIVAYSPILEKYVGKDITLKALIEASMTYSDNTANNKIIKEIGGIKKVKQRLKELGDKVTNPVRYEIELNYYSPKSKKDTSTPAAFGKTLNKLIANGKLSKEQKKFLLDLMLNNKSGDTLIKDGVPKDYKVADKSGQAITYASRNDVAFVYPKGQSEPIVLVIFTNKDNKSDKPNDKLISETAKSVMKEF
[8]
  hydrolysis of FAP: could not be detected
[9]
  hydrolysis of CCF2: reduced the ability
